Laboratory results from patent US20150284470A1.

How the values were obtained:
CD32b(Y163) = CD32b(Y163) (UniProt P31994); assay: SPR
FcRn (human) = FcRn (human) (UniProt P55899); assay: SPR; pH 6.0
FcRn (human), sequence (P55899 24-297): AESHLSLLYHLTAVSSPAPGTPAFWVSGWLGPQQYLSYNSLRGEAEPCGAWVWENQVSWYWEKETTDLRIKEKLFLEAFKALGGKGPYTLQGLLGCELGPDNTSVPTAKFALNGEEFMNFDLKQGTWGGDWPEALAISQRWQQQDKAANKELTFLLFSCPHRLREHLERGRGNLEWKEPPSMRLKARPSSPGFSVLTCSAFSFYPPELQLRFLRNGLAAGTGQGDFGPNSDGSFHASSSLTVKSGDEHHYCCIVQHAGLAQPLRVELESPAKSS

CD32b(Y163), sequence (P31994 43-217): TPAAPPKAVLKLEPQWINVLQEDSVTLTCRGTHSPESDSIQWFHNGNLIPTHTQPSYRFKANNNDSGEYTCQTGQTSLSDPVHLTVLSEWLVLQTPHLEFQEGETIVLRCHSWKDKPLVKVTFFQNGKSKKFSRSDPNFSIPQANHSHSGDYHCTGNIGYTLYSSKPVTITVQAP

Herceptin WT
Kd (CD32b(Y163)): 1700 nM | Kd (FcRn (human)): 3700 nM
